Article PMC5299624 (The Journal of General Physiology, 2017)

What follows are binders tested against calmodulin (CaM) (UniProt P0DP23 1-149) (assay: ITC).

| Binder | Kd [nM] |
| --- | --- |
| human NaV1.2 CTD (1777-1937) H1853R (domain or fragment) ENFSVATEESAEPLSEDDFEMFYEVWEKFDPDATQFIEFAKLSDFADALDPPLLIAKPNKVQLIAMDLPMVSGDRIRCLDILFAFTKRVLGESGEMDALRIQMEERFMASNPSKVSYEPITTTLKRKQEEVSAIIIQRAYRRYLLKQKVKKVSSIYKKDKG | 172 |
| human NaV1.2 CTD (1777-1937) R1918H (domain or fragment) ENFSVATEESAEPLSEDDFEMFYEVWEKFDPDATQFIEFAKLSDFADALDPPLLIAKPNKVQLIAMDLPMVSGDRIHCLDILFAFTKRVLGESGEMDALRIQMEERFMASNPSKVSYEPITTTLKRKQEEVSAIIIQRAYRHYLLKQKVKKVSSIYKKDKG | 112 |
| human NaV1.6 C-terminal domain (CTD), amino acids 1769-1926, wild type (domain or fragment) FSVATEESADPLSEDDFETFYEIWEKFDPDATQFIEYCKLADFADALEHPLRVPKPNTIELIAMDLPMVSGDRIHCLDILFAFTKRVLGDSGELDILRQQMEERFVASNPSKVSYEPITTTLRRKQEEVSAVVLQRAYRGHLARRGFICKKTTSNKLE | 276 |
